# In patent publication US20230151068A1:
# Biological target: biotinylated His-Avi-TEAD (194-411) (UniProt P28347)
# Experiment: SSM screen, enrichment after two rounds of sorting
row,Binder,enrichment score
1,GSPDEYIERAKECCKKHDIQCCLRYFEESGDPNVMLICLFCP (designed binder) [G15H variant of SEQ ID NO: 1],3.18
2,GSPDEYIERAKECCKKGDTQCCLRYFEESGDPNVMLICLFCP (designed binder) [I17T variant of SEQ ID NO: 1],2.21
3,GSPDEYIERAKECCKKGDIRCCLRYFEESGDPNVMLICLFCP (designed binder) [Q18R variant of SEQ ID NO: 1],-3.67
4,GSPDEYIERAKECCKKGKIQCCLRYFEESGDPNVMLICLFCP (designed binder) [D16K variant of SEQ ID NO: 1],-6.95
5,GSPDEYIERAKECCKQGDIQCCLRYFEESGDPNVMLICLFCP (designed binder) [K14Q variant of SEQ ID NO: 1],0.17
6,GSPDEYIERAKECCKKMDIQCCLRYFEESGDPNVMLICLFCP (designed binder) [G15M variant of SEQ ID NO: 1],1.64
7,GSPDEYIERAKECCLKGDIQCCLRYFEESGDPNVMLICLFCP (designed binder) [K13L variant of SEQ ID NO: 1],-1.37
8,GSPDEYIERAKECCKMGDIQCCLRYFEESGDPNVMLICLFCP (designed binder) [K14M variant of SEQ ID NO: 1],-0.92
9,GSPDEYIERAKECCKKGDNQCCLRYFEESGDPNVMLICLFCP (designed binder) [I17N variant of SEQ ID NO: 1],0.47
10,GSPDEYIERAKECCKKTDIQCCLRYFEESGDPNVMLICLFCP (designed binder) [G15T variant of SEQ ID NO: 1],2.65
11,GSPDEYIERAKECCKKGDRQCCLRYFEESGDPNVMLICLFCP (designed binder) [I17R variant of SEQ ID NO: 1],0.46
12,GSPDEYIERAKECCKNGDIQCCLRYFEESGDPNVMLICLFCP (designed binder) [K14N variant of SEQ ID NO: 1],1.51
13,GSPDEYIERAKECCKKGDMQCCLRYFEESGDPNVMLICLFCP (designed binder) [I17M variant of SEQ ID NO: 1],-2.95
14,GSPDEYIERAKECCKKGDSQCCLRYFEESGDPNVMLICLFCP (designed binder) [I17S variant of SEQ ID NO: 1],-2.1
15,GSPDEYIERAKECCKAGDIQCCLRYFEESGDPNVMLICLFCP (designed binder) [K14A variant of SEQ ID NO: 1],-0.22
16,GSPDEYIERAKECCKKGDIACCLRYFEESGDPNVMLICLFCP (designed binder) [Q18A variant of SEQ ID NO: 1],-1.53

row,Binder,enrichment score
1,GSPDEYIERAKECCKKGSIQCCLRYFEESGDPNVMLICLFCP (designed binder) [D16S variant of SEQ ID NO: 1],-2.71
2,GSPDEYIERAKECCKKQDIQCCLRYFEESGDPNVMLICLFCP (designed binder) [G15Q variant of SEQ ID NO: 1],2.5
3,GSPDEYIERAKECCKIGDIQCCLRYFEESGDPNVMLICLFCP (designed binder) [K14I variant of SEQ ID NO: 1],-0.99
4,GSPDEYIERAKECCSKGDIQCCLRYFEESGDPNVMLICLFCP (designed binder) [K13S variant of SEQ ID NO: 1],1.43
5,GSPDEYIERAKECCKKGQIQCCLRYFEESGDPNVMLICLFCP (designed binder) [D16Q variant of SEQ ID NO: 1],-3.47
6,GSPDEYIERAKECCKKGDIICCLRYFEESGDPNVMLICLFCP (designed binder) [Q18I variant of SEQ ID NO: 1],-11.4
7,GSPDEYIERAKECCKKGAIQCCLRYFEESGDPNVMLICLFCP (designed binder) [D16A variant of SEQ ID NO: 1],-5.23
8,GSPDEYIERAKECCKKNDIQCCLRYFEESGDPNVMLICLFCP (designed binder) [G15N variant of SEQ ID NO: 1],3.06
9,GSPDEYIERAKECCRKGDIQCCLRYFEESGDPNVMLICLFCP (designed binder) [K13R variant of SEQ ID NO: 1],-0.81
10,GSPDEYIERAKECCKRGDIQCCLRYFEESGDPNVMLICLFCP (designed binder) [K14R variant of SEQ ID NO: 1],-1.06
11,GSPDEYIERAKECCNKGDIQCCLRYFEESGDPNVMLICLFCP (designed binder) [K13N variant of SEQ ID NO: 1],0.6
12,GSPDEYIERAKECCKKGDKQCCLRYFEESGDPNVMLICLFCP (designed binder) [I17K variant of SEQ ID NO: 1],-4.53
13,GSPDEYIERAKECCKKGDAQCCLRYFEESGDPNVMLICLFCP (designed binder) [I17A variant of SEQ ID NO: 1],-4.36
14,GSPDEYIERAKECCKKSDIQCCLRYFEESGDPNVMLICLFCP (designed binder) [G15S variant of SEQ ID NO: 1],2.37
15,GSPDEYIERAKECCAKGDIQCCLRYFEESGDPNVMLICLFCP (designed binder) [K13A variant of SEQ ID NO: 1],1.94

# Continued, values first:
row,enrichment score,Binder
1,-3.33,GSPDEYIERAKECCKKGDHQCCLRYFEESGDPNVMLICLFCP (designed binder) [I17H variant of SEQ ID NO: 1]
2,-0.4,GSPDEYIERAKECCMKGDIQCCLRYFEESGDPNVMLICLFCP (designed binder) [K13M variant of SEQ ID NO: 1]
3,1.61,GSPDEYIERAKECCKSGDIQCCLRYFEESGDPNVMLICLFCP (designed binder) [K14S variant of SEQ ID NO: 1]
4,-4.55,GSPDEYIERAKECCKKGHIQCCLRYFEESGDPNVMLICLFCP (designed binder) [D16H variant of SEQ ID NO: 1]
5,1.89,GSPDEYIERAKECCKKADIQCCLRYFEESGDPNVMLICLFCP (designed binder) [G15A variant of SEQ ID NO: 1]
6,2.23,GSPDEYIERAKECCQKGDIQCCLRYFEESGDPNVMLICLFCP (designed binder) [K13Q variant of SEQ ID NO: 1]
7,-3.1,GSPDEYIERAKECCKKGDQQCCLRYFEESGDPNVMLICLFCP (designed binder) [I17Q variant of SEQ ID NO: 1]
8,-1.25,GSPDEYIERAKECCKKGDISCCLRYFEESGDPNVMLICLFCP (designed binder) [Q18S variant of SEQ ID NO: 1]
9,-9.52,GSPDEYIERAKECCKKGDIMCCLRYFEESGDPNVMLICLFCP (designed binder) [Q18M variant of SEQ ID NO: 1]
10,-0.89,GSPDEYIERAKECCKLGDIQCCLRYFEESGDPNVMLICLFCP (designed binder) [K14L variant of SEQ ID NO: 1]
11,1.49,GSPDEYIERAKECCTKGDIQCCLRYFEESGDPNVMLICLFCP (designed binder) [K13T variant of SEQ ID NO: 1]
12,-4.12,GSPDEYIERAKECCKKGMIQCCLRYFEESGDPNVMLICLFCP (designed binder) [D16M variant of SEQ ID NO: 1]
13,-1.96,GSPDEYIERAKECCKKIDIQCCLRYFEESGDPNVMLICLFCP (designed binder) [G15I variant of SEQ ID NO: 1]
14,-0.16,GSPDEYIERAKECCKKGDINCCLRYFEESGDPNVMLICLFCP (designed binder) [Q18N variant of SEQ ID NO: 1]
15,-1.54,GSPDEYIERAKECCKKGDIKCCLRYFEESGDPNVMLICLFCP (designed binder) [Q18K variant of SEQ ID NO: 1]
16,-4.39,GSPDEYIERAKECCKKGDIHCCLRYFEESGDPNVMLICLFCP (designed binder) [Q18H variant of SEQ ID NO: 1]
17,-1.54,GSPDEYIERAKECCIKGDIQCCLRYFEESGDPNVMLICLFCP (designed binder) [K13I variant of SEQ ID NO: 1]
18,4.43,GSPDEYIERAKECCKKKDIQCCLRYFEESGDPNVMLICLFCP (designed binder) [G15K variant of SEQ ID NO: 1]
19,-6.42,GSPDEYIERAKECCKKGIIQCCLRYFEESGDPNVMLICLFCP (designed binder) [D16I variant of SEQ ID NO: 1]
20,3.18,GSPDEYIERAKECCKTGDIQCCLRYFEESGDPNVMLICLFCP (designed binder) [K14T variant of SEQ ID NO: 1]
21,-2.7,GSPDEYIERAKECCKKGNIQCCLRYFEESGDPNVMLICLFCP (designed binder) [D16N variant of SEQ ID NO: 1]
22,-2.28,GSPDEYIERAKECCKKGDITCCLRYFEESGDPNVMLICLFCP (designed binder) [Q18T variant of SEQ ID NO: 1]
23,-10,GSPDEYIERAKECCKKGTIQCCLRYFEESGDPNVMLICLFCP (designed binder) [D16T variant of SEQ ID NO: 1]
24,0.91,GSPDEYIERAKECCKKRDIQCCLRYFEESGDPNVMLICLFCP (designed binder) [G15R variant of SEQ ID NO: 1]
25,-5.59,GSPDEYIERAKECCKKGRIQCCLRYFEESGDPNVMLICLFCP (designed binder) [D16R variant of SEQ ID NO: 1]
